Experiments:
[1] = tested on: T1, RhCas12f1 (ME-A.1) (Ruminiclostridium herbifermentans); assay: cell_activity; details: non-targeting spacer
T1 sequence: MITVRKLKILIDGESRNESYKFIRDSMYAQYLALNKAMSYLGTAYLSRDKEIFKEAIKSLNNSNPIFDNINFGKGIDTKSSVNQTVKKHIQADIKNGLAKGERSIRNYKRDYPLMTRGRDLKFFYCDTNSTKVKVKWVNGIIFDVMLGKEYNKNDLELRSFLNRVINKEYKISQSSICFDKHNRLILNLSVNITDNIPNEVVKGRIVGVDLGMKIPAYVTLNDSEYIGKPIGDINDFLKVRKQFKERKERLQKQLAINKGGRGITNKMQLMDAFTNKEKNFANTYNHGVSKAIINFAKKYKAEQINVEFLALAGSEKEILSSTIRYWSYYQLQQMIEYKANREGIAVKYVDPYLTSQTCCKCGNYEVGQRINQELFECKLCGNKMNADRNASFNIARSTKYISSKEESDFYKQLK

[2] = tested on: T2, OsCas12f1 (ME-B.3) (Oscillibacter sp.); assay: cell_activity
T2 sequence: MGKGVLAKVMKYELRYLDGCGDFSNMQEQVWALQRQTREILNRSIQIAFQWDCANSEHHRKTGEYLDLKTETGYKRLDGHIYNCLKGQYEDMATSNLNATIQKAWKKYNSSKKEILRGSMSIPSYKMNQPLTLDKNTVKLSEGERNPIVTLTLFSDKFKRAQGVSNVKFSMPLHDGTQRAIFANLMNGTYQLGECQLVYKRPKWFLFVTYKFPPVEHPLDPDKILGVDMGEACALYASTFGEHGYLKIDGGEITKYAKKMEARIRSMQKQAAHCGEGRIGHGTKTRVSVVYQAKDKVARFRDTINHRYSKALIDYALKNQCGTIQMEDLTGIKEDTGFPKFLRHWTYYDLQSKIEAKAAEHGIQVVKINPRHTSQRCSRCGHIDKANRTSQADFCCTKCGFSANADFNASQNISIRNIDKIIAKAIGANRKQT

[3] = biological target: the molecule itself; assay: size-exclusion chromatography (Superdex 200 Increase 10/300) of Cas12f1 RNP assembled with sgRNA; self-association (homodimer)

## ACGGUUGAUUUAGCAACCGAAGUCUGAGGGCAUGUAGAAAAAAGUAUAGGUAUAUACCAACAUACUUGCAUUGCCACUCGGAAAGGGUUAACCUUGGUCAUUGUGUUACCGACCAAGCAUUCCAGAAAUGGAAUGUAAAUGGGUCUUCGAGAAGACCUUUUUAUUUUUUU / CCCACCATTACAGTAGGAGCATAC / GTATGCTCCTACTGTAATGGTGGG
[1]
  activity: 0.62 % GFP+

## AGGGACGACUUCCCGUCCCAAAAUCGAGACAGUAGCCGUAAAACUUUGAGUUUCAGAGUGGGCGACACACUCGAAAAGGUUAAGAUAUGCACAUAGUAAUCCGUGCAUGAGCCGCGAAAGCGGCUUGAAGGGGGUCUUCGAGAAGACCUUUUUAUUUUUUU / TTTCCCATTACAGTAGGAGCATACGGG / CCCGTATGCTCCTACTGTAATGGGAAA
[2]; non-targeting spacer
  activity: 0.55 % GFP+

## AGGGCCGACUUCCCGGCCCAAAAUCGAGACAGUAGCCGUAAAACUUUGAGUUUCAGAGUGGGCGACACACUCGAAAAGGUUAAGAUAUGCACAUAGUAAUCCGUGCAUGAGCCGCGAAAGCGGCUUGAAGGCCAUUACAGUAGGAGCAUACUUUUAUUUUUUU / TTTCCCATTACAGTAGGAGCATACGGG / CCCGTATGCTCCTACTGTAATGGGAAA
[2]; PAM TTTC
  binding signal (fold vs WT scaffold): 1.56

B1: RhCas12f1 (ME-A.1) (enzyme)
chain: T1 sequence
notes: Purified recombinant protein used in size-exclusion chromatography; Entered as the single polypeptide; also called WTRhCas12f1; Cas12f1 from Ruminiclostridium herbifermentans; not shown: C-terminal 6xHis tag
[3]
  binding result: binds

B2: OsCas12f1 (ME-B.3) (enzyme)
chain: T2 sequence
notes: Purified recombinant protein used in size-exclusion chromatography; Entered as the single polypeptide; also called WTOsCas12f1; Cas12f1 from Oscillibacter sp; not shown: C-terminal 6xHis tag
[3]
  binding result: binds

— US20240011005A1 (HUIDAGENE THERAPEUTICS, published 2024)
